B1: CFHR2 (parent)
chain: FVENGHSESSGQTHLEGDTVQIIC
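Also: lentivirally expressed fusions sorted by FACS into six bins by GFP to DsRed ratio, PSI derived from sequencing read proportions per bin multiplied by bin number.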

The series covers variants of B1. The series is described as follows: protein stability index of a GFP-peptide fusion (GPS, HEK-293T) (PSI 1-6); higher = more stable. The settings on record: c terminus: a fixed tail appended.
FVENGHSESSGATHLEGDTVQIIC: the protein stability index is 2.43. With FVENGHSESSGWTHLEGDTVQIIC the figure was 2.35; with FVENGHSESSGSTHLEGDTVQIIC, 2.49.

Turning to FVENGHSESSGYTHLEGDTVQIIC, the protein stability index turned out to be 1.62. As for FVENGHSESSGHTHLEGDTVQIIC, the figure is 2.4; as for FVENGHSESSGKTHLEGDTVQIIC, 2.05; as for FVENGHSESSGITHLEGDTVQIIC, 2.06. As for FVENGHSESSGLTHLEGDTVQIIC, the figure is 1.69; as for FVENGHSESSGNTHLEGDTVQIIC, 3.39; as for FVENGHSESSGRTHLEGDTVQIIC, 1.92. As for FVENGHSESSGPTHLEGDTVQIIC, the protein stability index came to 3.19. For the variant FVENGHSESSGFTHLEGDTVQIIC, the protein stability index amounted to 2.23.

For FVENGHSESSGVTHLEGDTVQIIC, the protein stability index came to 2.08. For the variant FVENGHSESSGTTHLEGDTVQIIC, the protein stability index worked out at 2.62. In the case of FVENGHSESSGMTHLEGDTVQIIC, the protein stability index stood at 1.76. FVENGHSESSGGTHLEGDTVQIIC: the protein stability index came out at 3.2.

Take FVENGHSESSGCTHLEGDTVQIIC: the protein stability index was found to be 1.86. As for FVENGHSESSGETHLEGDTVQIIC, the figure is 3.67. Regarding FVENGHSESSGQTHLQGDTVQIIC, the protein stability index turned out to be 2.33. Take FVENGHSESSGQTHLVGDTVQIIC: the protein stability index was determined as 1.76. With FVENGHSESSGQTHLMGDTVQIIC, the protein stability index was 2.14. As for FVENGHSESSGQTHLIGDTVQIIC, the figure is 2.25; as for FVENGHSESSGQTHLDGDTVQIIC, 3.12; as for FVENGHSESSGQTHLHGDTVQIIC, 1.86.

Regarding FVENGHSESSGQTHLSGDTVQIIC, the protein stability index worked out at 2.71.

In the case of FVENGHSESSGQTHLRGDTVQIIC, the protein stability index turned out to be 2.63.

In the case of FVENGHSESSGQTHLLGDTVQIIC, the protein stability index worked out at 2.59. With FVENGHSESSGQTHLGGDTVQIIC the figure was 2.01; with FVENGHSESSGQTHLPGDTVQIIC, 2.42. FVENGHSESSGQTHLCGDTVQIIC: the protein stability index amounted to 1.82.

For the variant FVENGHSESSGQTHLKGDTVQIIC, the protein stability index was determined as 2.19.

For the variant FVENGHSESSGQTHLNGDTVQIIC, the protein stability index was 2.15. With FVENGHSESSGQTHLTGDTVQIIC the figure was 2.62; with FVENGHSESSGQTHLAGDTVQIIC, 2.13; with FVENGHSESSGQTHLEGDTVAIIC, 3.11. For FVENGHSESSGQTHLEGDTVDIIC, the protein stability index came to 3.69. As for FVENGHSESSGQTHLEGDTVCIIC, the figure is 2.18; as for FVENGHSESSGQTHLEGDTNQIIC, 3.66; as for FVENGHSESSGQTHLEGDTPQIIC, 3.26. Regarding FVENGHSESSGQTHLEGDTRQIIC, the protein stability index amounted to 3.3. With FVENGHSESSGQTHLEGDTLQIIC the figure was 2.45.

FVENGHSESSGQTHLEGDTTQIIC: the protein stability index was found to be 3.74.

As for FVENGHSESSGQTHLEGDTEQIIC, the protein stability index was 4.03. With FVENGHSESSGQTHLEGDTKQIIC the figure was 3.06; with FVENGHSESSGQTHLEGDTQQIIC, 4.09. With FVENGHSESSGQTHLEGDTDQIIC the figure was 3.81; with FVENGHSESSGQTHLEGDTAQIIC, 3.64.

Regarding FVENGHSESSGQTHLEGDTIQIIC, the protein stability index was 2.19. With FVENGHSESSGQTHLEGDTYQIIC, the protein stability index came to 2.71.

As for FVENGHSESSGQTHLEGDTFQIIC, the protein stability index was 2.02. As for FVENGHSESSGQTHLEGDTCQIIC, the figure is 2.69; as for FVENGHSESSGQTHLEGDTGQIIC, 4. FVENGHSESSGQTHLEGDTMQIIC: the protein stability index is 2.59.

As to FVENGHSESSGQTHLEGDTSQIIC, the protein stability index was found to be 2.74.

In the case of FVENGHSESSGQTHLEGDTHQIIC, the protein stability index was found to be 3.41. With FVENGHSESSGQTHLEGDTWQIIC the figure was 1.57; with FVENGHSESSGQTHIEGDTVQIIC, 2.69.

For FVENGHSESSGQTHDEGDTVQIIC, the protein stability index stood at 3.4. With FVENGHSESSGQTHSEGDTVQIIC the figure was 3.22; with FVENGHSESSGQTHEEGDTVQIIC, 3.15; with FVENGHSESSGQTHMEGDTVQIIC, 3.13. As for FVENGHSESSGQTHREGDTVQIIC, the figure is 2.87.

Turning to FVENGHSESSGQTHNEGDTVQIIC, the protein stability index stood at 3.49. With FVENGHSESSGQTHYEGDTVQIIC the figure was 2.76; with FVENGHSESSGQTHAEGDTVQIIC, 3.22.

On to FVENGHSESSGQTHWEGDTVQIIC, for which the protein stability index came to 1.53. FVENGHSESSGQTHVEGDTVQIIC: the protein stability index stood at 2.99. With FVENGHSESSGQTHGEGDTVQIIC, the protein stability index amounted to 2.9.

On to FVENGHSESSGQTHCEGDTVQIIC, for which the protein stability index turned out to be 2.78. With FVENGHSESSGQTHFEGDTVQIIC the figure was 2.2. As for FVENGHSESSGQTHQEGDTVQIIC, the figure is 3.65.

On to FVENGHSESSGQTHKEGDTVQIIC, for which the protein stability index was 3.25. With FVENGHSESSGQTHTEGDTVQIIC the figure was 3.12; with FVENGHSESSGQTHPEGDTVQIIC, 3.2. Regarding FVENGHSESSGQTHHEGDTVQIIC, the protein stability index stood at 3. As for FVENGHSESSGQTHLEDDTVQIIC, the figure is 3.46; as for FVENGHSESSGQTHLEIDTVQIIC, 2.05. As for FVENGHSESSGQTHLESDTVQIIC, the figure is 2.77; as for FVENGHSESSGQTHLEVDTVQIIC, 2.11. With FVENGHSESSGQTHLETDTVQIIC the figure was 2.91; with FVENGHSESSGQTHLENDTVQIIC, 2.9; with FVENGHSESSGQTHLECDTVQIIC, 2.28. Consider FVENGHSESSGQTHLELDTVQIIC, for which the protein stability index is 2.08.

In the case of FVENGHSESSGQTHLEFDTVQIIC, the protein stability index amounted to 1.8. Consider FVENGHSESSGQTHLEMDTVQIIC, for which the protein stability index stood at 2.29. With FVENGHSESSGQTHLEWDTVQIIC the figure was 1.79. With FVENGHSESSGQTHLEADTVQIIC the figure was 2.3; with FVENGHSESSGQTHLEQDTVQIIC, 2.97; with FVENGHSESSGQTHLEHDTVQIIC, 2.99. With FVENGHSESSGQTHLEKDTVQIIC the figure was 2.54; with FVENGHSESSGQTHLEEDTVQIIC, 4.47; with FVENGHSESSGQTHLERDTVQIIC, 2.52. Turning to FVENGHSESSGQTHLEYDTVQIIC, the protein stability index was determined as 1.73. With FVENGHSESSGQTHLEPDTVQIIC the figure was 2.81.

For the origin of these results see the supplement of paper PMC10567573.
